Article PMC7595633 (PLoS Neglected Tropical Diseases, 2020)
Where “and” joins values, the source holds several entries; their conditions need not be identical. Identical values can stand only once.

Columns and labels:
[1] = target: the molecule itself; assay: native gel or EMSA; PhastGel gradient 8-25%, room temperature; 1 mg/mL (methods), 2 mg/mL (legend of Fig 1D); Coomassie stained
[2] = target: T1, Trypanosoma brucei selenocysteine lyase (TbSCLY), recombinant (Trypanosoma brucei, UniProt Q38DC4 1-451, pyridoxal-phosphate (PLP) bound to the active site); assay: ITC
T1 chain: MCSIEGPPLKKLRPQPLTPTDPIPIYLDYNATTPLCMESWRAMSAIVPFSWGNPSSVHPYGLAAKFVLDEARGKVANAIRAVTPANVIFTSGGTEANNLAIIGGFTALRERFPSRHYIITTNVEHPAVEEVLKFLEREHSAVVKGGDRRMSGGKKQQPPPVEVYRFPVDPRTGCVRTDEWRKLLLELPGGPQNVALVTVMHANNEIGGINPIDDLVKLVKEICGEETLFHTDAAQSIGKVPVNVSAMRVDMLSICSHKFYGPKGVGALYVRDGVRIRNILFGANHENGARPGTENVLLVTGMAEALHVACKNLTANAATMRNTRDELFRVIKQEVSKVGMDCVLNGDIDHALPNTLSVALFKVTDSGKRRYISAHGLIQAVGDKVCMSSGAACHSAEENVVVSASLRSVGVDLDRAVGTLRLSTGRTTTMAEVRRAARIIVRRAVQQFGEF

[3] = target: the molecule itself; assay: AUC; sedimentation equilibrium; tetramer to dimers; 0.5, 0.75 and 1.0 mg/mL; 8,000, 10,000 and 12,000 rpm, 4°C; global fit in SEDPHAT

B1: ΔN(69)-LmSEPHS2, N-terminally truncated L. major selenophosphate synthetase (domain or fragment, Leishmania major, UniProt Q4Q0M0 70-398, looked up)
chain: DVGMDCSIVPLHHTNSKGEALFLVSTTDFFFPSVSDPFLQGQIGAANVLSDLYSMGIPDCDTMLMLLAASTEMDEHERLITTREIMKGFAERARLATTTVTGGQTVMNPWPLIGGVAMAVVSEAEMVRPTGLLCAGDILVLTKPLGCQVAVNLKQWLLRPSPLYEEAIAGHISPEEIEELYNMATDSMRRLNREGARLMRKHGAHGATDVTGFGILGHANNFGAAQAVGDAPRSLCLVLERLPMFKTAVAASKQMNDKYRLLEGYSAETSGGLLVAFPSTTAAAAFCAELTAVDGGCPSWIVGHVEDRATNAVDGVYARLKDGYEIVEV
notes: selenophosphate synthetase SEPHS2 of Leishmania major, LmjF.36.5410, lacking the 69-residue N-terminal region; also called ΔN-LmSEPHS2
stoichiometry N [1]: 2 and 4

B2: ΔN(25)-TbSEPHS2, amino acid residues 26-393 (domain or fragment, Trypanosoma brucei, UniProt Q38A34 26-393, looked up)
chain: GLPEEFTLTDYTRLKGCSCKVPQPELLALLQSVSTTPGRRDVGMDCSIVKLQHKDETGKPLYMVSTTDFFFPSVEDPYLQGQIGAANVLSDLYSTGIDRCDTVLMLLAASTDMDKTEREVCTQEMMKGFVDHVRLAGSDVTGGQTVMNPWPLIGGIATSVVAESQMIRPTGLQPGDILVLTKPLGCQIAVNLKQWLRRPSPIFEEQIQGKMDSEEIEELYNAAADGMKRLNRMAAALMHSHGAHGATDVTGFGILGHAKNLGSAQKADVCLVLDSLPMYRGAVKASKLMGDKYRLFEGYAAETSGGLLVAFGTREEAEGYIRELYETDGEPAWVVGRVVRREGSAPYALLQKDYKIIEVGAKVNDKII
notes: selenophosphate synthetase SEPHS2 of Trypanosoma brucei, Tb927.10.9410, residues 26-393; Cloned into pET20b with the printed oligonucleotides
stoichiometry N [1]: 2 and 4

B3: Trypanosoma brucei selenophosphate synthetase (TbSEPHS2), recombinant full-length (enzyme, UniProt Q38A34 1-393, looked up)
chain: MSEKEGKVIPETNGMKRPRFDPVKLGLPEEFTLTDYTRLKGCSCKVPQPELLALLQSVSTTPGRRDVGMDCSIVKLQHKDETGKPLYMVSTTDFFFPSVEDPYLQGQIGAANVLSDLYSTGIDRCDTVLMLLAASTDMDKTEREVCTQEMMKGFVDHVRLAGSDVTGGQTVMNPWPLIGGIATSVVAESQMIRPTGLQPGDILVLTKPLGCQIAVNLKQWLRRPSPIFEEQIQGKMDSEEIEELYNAAADGMKRLNRMAAALMHSHGAHGATDVTGFGILGHAKNLGSAQKADVCLVLDSLPMYRGAVKASKLMGDKYRLFEGYAAETSGGLLVAFGTREEAEGYIRELYETDGEPAWVVGRVVRREGSAPYALLQKDYKIIEVGAKVNDKII
notes: selenophosphate synthetase SEPHS2 of Trypanosoma brucei, Tb927.10.9410, 393 residues (from the limits of the truncated constructs); also called SPS2; TbSPSH2
Kd [2]: 5.2 µM

B4: Leishmania major selenophosphate synthetase (LmSEPHS2), recombinant full-length (enzyme, UniProt Q4Q0M0 1-398, looked up)
chain: MSHKRPQSSAGESNGAVDLKTPRFDPVSLGLPAEFQLTDYTRLKGCSCKLPQPKLLALLQELSATPGQKDVGMDCSIVPLHHTNSKGEALFLVSTTDFFFPSVSDPFLQGQIGAANVLSDLYSMGIPDCDTMLMLLAASTEMDEHERLITTREIMKGFAERARLATTTVTGGQTVMNPWPLIGGVAMAVVSEAEMVRPTGLLCAGDILVLTKPLGCQVAVNLKQWLLRPSPLYEEAIAGHISPEEIEELYNMATDSMRRLNREGARLMRKHGAHGATDVTGFGILGHANNFGAAQAVGDAPRSLCLVLERLPMFKTAVAASKQMNDKYRLLEGYSAETSGGLLVAFPSTTAAAAFCAELTAVDGGCPSWIVGHVEDRATNAVDGVYARLKDGYEIVEV
notes: selenophosphate synthetase SEPHS2 of Leishmania major, LmjF.36.5410; also called LmSEPSH2
stoichiometry N [1]: 2 and 4
Kd [3]: 178 ± 10 µM

B5: ΔN(70)-TbSEPHS2, residues 71-393 (domain or fragment, Trypanosoma brucei, UniProt Q38A34 71-393, looked up)
chain: CSIVKLQHKDETGKPLYMVSTTDFFFPSVEDPYLQGQIGAANVLSDLYSTGIDRCDTVLMLLAASTDMDKTEREVCTQEMMKGFVDHVRLAGSDVTGGQTVMNPWPLIGGIATSVVAESQMIRPTGLQPGDILVLTKPLGCQIAVNLKQWLRRPSPIFEEQIQGKMDSEEIEELYNAAADGMKRLNRMAAALMHSHGAHGATDVTGFGILGHAKNLGSAQKADVCLVLDSLPMYRGAVKASKLMGDKYRLFEGYAAETSGGLLVAFGTREEAEGYIRELYETDGEPAWVVGRVVRREGSAPYALLQKDYKIIEVGAKVNDKII
notes: selenophosphate synthetase SEPHS2 of Trypanosoma brucei, Tb927.10.9410, residues 71-393; Cloned into pET20b with the printed oligonucleotides; also called ΔN(70)-SEPHS2
stoichiometry N [1]: 2 and 4
